The record followed here is patent US20200239556A1 (BIOVERATIV USA, published 2020).

The target in assay [1] is T1, full length human Complement Factor B (human, UniProt P00751 26-764).
T1 construct: also called fB; FB
The assay can be described thus: ELISA, antigen coated on the plate, HRP goat anti-mouse detection. On the technique in general: An ELISA detects its analyte on a solid surface through an enzyme-linked reagent.

Another assay addresses T2, human Factor Bb (human, UniProt P00751 260-764).
T2 construct: The protein in the assay was purified human Factor Bb; also called fBb
The assay can be described thus: direct ELISA screen of hybridoma clones on fBb.

T2 sequence (P00751 260-764 limits assumed): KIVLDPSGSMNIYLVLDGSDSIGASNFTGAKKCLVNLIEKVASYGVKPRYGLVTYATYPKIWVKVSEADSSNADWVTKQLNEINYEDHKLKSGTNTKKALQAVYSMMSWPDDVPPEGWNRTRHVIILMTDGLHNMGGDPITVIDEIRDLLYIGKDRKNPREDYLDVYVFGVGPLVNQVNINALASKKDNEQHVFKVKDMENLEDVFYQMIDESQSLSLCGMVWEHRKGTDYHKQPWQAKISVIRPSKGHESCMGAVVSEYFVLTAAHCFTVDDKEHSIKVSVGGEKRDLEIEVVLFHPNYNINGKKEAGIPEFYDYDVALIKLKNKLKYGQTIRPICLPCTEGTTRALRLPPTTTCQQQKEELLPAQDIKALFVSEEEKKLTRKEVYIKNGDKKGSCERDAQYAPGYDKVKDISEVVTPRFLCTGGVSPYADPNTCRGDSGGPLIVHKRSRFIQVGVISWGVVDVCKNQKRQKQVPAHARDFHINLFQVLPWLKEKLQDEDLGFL
T1 sequence (P00751 26-764 limits assumed): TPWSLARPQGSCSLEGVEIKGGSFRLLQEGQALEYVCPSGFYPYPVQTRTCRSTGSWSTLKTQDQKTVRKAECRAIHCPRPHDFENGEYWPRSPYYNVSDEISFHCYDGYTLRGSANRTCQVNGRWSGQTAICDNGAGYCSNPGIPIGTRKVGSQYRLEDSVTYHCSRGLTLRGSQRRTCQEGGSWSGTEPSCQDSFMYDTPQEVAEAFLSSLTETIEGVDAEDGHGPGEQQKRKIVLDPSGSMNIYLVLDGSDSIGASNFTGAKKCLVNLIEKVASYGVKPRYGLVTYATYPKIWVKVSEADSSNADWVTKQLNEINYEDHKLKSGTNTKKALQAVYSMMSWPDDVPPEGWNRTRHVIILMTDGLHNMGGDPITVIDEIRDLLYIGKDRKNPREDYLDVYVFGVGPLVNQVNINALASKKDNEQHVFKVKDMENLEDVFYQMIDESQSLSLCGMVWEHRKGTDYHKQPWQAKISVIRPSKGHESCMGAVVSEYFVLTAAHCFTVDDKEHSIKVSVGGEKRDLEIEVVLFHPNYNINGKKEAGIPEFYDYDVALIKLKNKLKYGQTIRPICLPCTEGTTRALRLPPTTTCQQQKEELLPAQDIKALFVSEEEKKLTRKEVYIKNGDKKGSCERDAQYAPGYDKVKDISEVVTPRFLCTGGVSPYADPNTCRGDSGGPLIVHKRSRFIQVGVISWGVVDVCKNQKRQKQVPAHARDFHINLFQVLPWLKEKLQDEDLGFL

B1: anti-Factor B Ab (antibody, V domains shown)
VH: EVQLQQSGPELVKPGASVKMSCKASGYSFTDYLMNWVKQSHGKSLEWIGRINPYNGDAFYNQRFKGKATLTVDKSSSTAHMELRSLTSEDSALYYCARLENDYGFTYWGQGTLVTVSA
VL: DIVMTQAAFSNPVTLGTSASISCSSSKSLLHSNGITYLYWYLQRPGQSPQLLIYRMSNLASGVPDRFSGSGSGTDFTLRISRVEAEDVGVYYCAQMLERPWTFGGGTKLEIK
notes: Mouse monoclonal antibody purified from hybridoma supernatant (NZBW mice immunised with fBb); also called FBb Ab; anti-Factor B antibody
As for B1, the binding result (in assay [1]; with human Factor Bb) was “binds” in each case.
